Experimental findings from patent US20220017608A1 are described below.

What all share (assay): Biacore 3000, 25 °C, alanine scan: N-biotinylated peptide on SA chip, G1 Fab titrated; fold loss versus wild-type 25-37 fragment
One experiment addresses T1, S34A.
T1 sequence (peptide, N-terminal biotin): NNFVPTNVGAKAF

For the next experiment, the target named is T2, G33A.
T2 sequence (peptide, N-terminal biotin): NNFVPTNVASKAF

For a further experiment, the target named is T3, F37A.
T3 sequence (peptide, N-terminal biotin): NNFVPTNVGSKAA

B1: Fab fragments of antibody G1 (Fab, V domains shown)
VH: EVQLVESGGGLVQPGGSLRLSCAASGFTFSNYWISWVRQAPGKGLEWVAEIRSESDASATHYAEAVKGRFTISRDNAKNSLYLQMNSLRAEDTAVYYCLAYFDYGLAIQNYWGQGTLVTVSS
VL: EIVLTQSPATLSLSPGERATLSCKASKRVTTYVSWYQQKPGQAPRLLIYGASNRYLGIPARFSGSGSGTDFTLTISSLEPEDFAVYYCSQSYNYPYTFGQGTKLEIK
In the case of B1, the Fold loss in affinity with S34A is 10.9 fold; with G33A it was 504 fold; with F37A it was 339 fold.
